Measurements as given in the Human Domainome abundance scans (Beltran et al. 2025).
± gives the uncertainty stated by the source.

B1: Lysine-specific demethylase 2B, residues 656 to 722; numbered along this chain, Q8NHM5 (parent)
chain: LPHTAVCLVCGEAGKEDTVEEEEGKFNLMLMECSICNEIIHPGCLKIKESEGVVNDELPNCWECPKC

Variants of: B1
Assay: abundance fitness (aPCA) (normalised: wild type 0, dead -1); higher = more abundant; growth selection in yeast, the domain comes from the species named
Settings: Homo sapiens

Variant	abundance fitness
P59W	-0.319 ± 0.13
P59G	-0.076 ± 0.092
E32S	0.044 ± 0.088
E32I	-0.072 ± 0.19
E32Q	-0.17 ± 0.15
E32M	0.142 ± 0.1
E32A	-0.222 ± 0.092
E32P	-0.53 ± 0.22
E32T	0.02 ± 0.12
C64M	-0.923 ± 0.2
C64S	-0.797 ± 0.12
C64I	-0.778 ± 0.36
L28M	0.364 ± 0.098
L28Y	-0.169 ± 0.49
L28W	0.039 ± 0.073
L28N	0.476 ± 0.18
C10V	-1 ± 0.25
C10H	-0.828 ± 0.31
C10E	-0.329 ± 0.096
C10G	-0.277 ± 0.083
C10W	-1.14 ± 0.21

Variant	abundance fitness
C10R	-0.53 ± 0.087
C10F	-0.868 ± 0.19
G43T	-0.375 ± 0.11
G43L	-0.536 ± 0.088
G43C	-0.395 ± 0.12
G43M	0.113 ± 0.099
G43V	-0.302 ± 0.12
G43Q	-0.383 ± 0.13
G43F	-0.558 ± 0.16
T4N	-0.205 ± 0.25
T4Q	-0.729 ± 0.36
T4K	-0.964 ± 0.48
P42L	-0.317 ± 0.079
P42E	-0.537 ± 0.093
P42Y	0.122 ± 0.27
P42V	-0.423 ± 0.13
L30F	-0.778 ± 0.27
L30A	-0.35 ± 0.12
L30Q	-0.337 ± 0.23
L30T	-0.212 ± 0.098
N37W	-0.267 ± 0.1

Variant	abundance fitness
N37Y	0.137 ± 0.12
N37R	0.111 ± 0.066
N37Q	0.183 ± 0.1
N37V	-1.3 ± 0.25
N37F	-0.233 ± 0.2
N37M	-0.062 ± 0.097
S50H	-0.208 ± 0.16
S50W	-0.156 ± 0.13
S50Y	0.312 ± 0.15
S50D	0.085 ± 0.11
S50M	-0.155 ± 0.18
S50I	-0.036 ± 0.17
S50F	0.039 ± 0.2
I40E	-0.599 ± 0.086
I40R	-0.2 ± 0.07
I40P	-0.72 ± 0.12
I40W	-0.473 ± 0.11
I40A	0.008 ± 0.064
K15G	-0.206 ± 0.1
K15D	-1.01 ± 0.29
K15C	-0.611 ± 0.14

Variant	abundance fitness
K15H	-0.65 ± 0.4
K15Q	-0.378 ± 0.17
P2C	0.396 ± 0.13
P2D	0.787 ± 0.15
E16W	-0.638 ± 0.24
E12V	-0.303 ± 0.11
E12I	-0.357 ± 0.23
E12R	-0.016 ± 0.06
E12T	0.045 ± 0.073
E12C	-0.159 ± 0.13
E12Q	0.078 ± 0.1
V6W	-0.759 ± 0.2
V6D	-0.293 ± 0.49
V6S	-0.094 ± 0.17
V6Q	-0.541 ± 0.3
V6L	-0.004 ± 0.1
V6R	-0.285 ± 0.14
C44M	-0.735 ± 0.22
C44Y	-0.897 ± 0.44
P65E	-0.148 ± 0.12
P65T	-0.634 ± 0.15
